{"source": "paper PMC5035961", "key": {"[1]": {"target": "Influenza A nucleoprotein (strain A/WSN/1933, H1N1) (influenza A virus, H1N1 strain A/WSN/1933) (UniProt P15682)", "experiment": "SEC-MALLS"}, "[2]": {"target": "Influenza A nucleoprotein (strain A/WSN/1933, H1N1) (influenza A virus, H1N1 strain A/WSN/1933) (UniProt P15682)", "experiment": "negative stain electron microscopy"}}}
{"substance": "Influenza A nucleoprotein (strain A/WSN/1933, H1N1) (from UniProt P15682 1-498) (natural protein)", "values": [{"measurement": "stoichiometry N", "setting": "[1]", "result": 3}, {"measurement": "stoichiometry N", "setting": "[2]", "result": 3}]}
